{
  "source": "paper PMC8545088",
  "key": {"[1]": {"molecular_target": "PorZ from P. gingivalis (P. gingivalis W83)", "assay": "other fluorescence titration; microscale fluorescence (initial fluorescence, Monolith NT.115): 20 nM NT-647-labelled PorZ titrated with PorU (3 nM to 100 μM) in PBS, 25°C, without A-LPS; 1:1 binding model"}, "[2]": {"molecular_target": "PorZ from P. gingivalis (P. gingivalis W83)", "assay": "other fluorescence titration; microscale fluorescence (initial fluorescence, Monolith NT.115): 20 nM NT-647-labelled PorZ with 1 × 10^5 EU/ml A-LPS from W83, titrated with PorU (3 nM to 100 μM) in PBS, 25°C; 1:1 binding model"}},
  "data": [
    {"binder": "PorU sortase from P. gingivalis, hexahistidine-tagged (enzyme) QRAMGKTADRSLMASGHWVKIRVDASGVYRLTDEQLRANGFSDPSKVGVFGYGGGVLPEDLSRITTDDLPPVPVLRQGNALYFYAVGPVTWFYNPAKTTMEHTVNTYSTHGYYFLSDAAGAPLQMSQYTGGGASAEALIDYYDELMLHEQELYSPKESGRDLYGESFSAVNTRTVKFPLRGNTRSSGELGTVFSYIAKARSAGGGREMSLSANGILIFSDPFSMTSNEVSNSYLAGKKRRLYRSTPMNSLVNELRLDANYSMTGDAVNLDFIEVATQNDLRYDGAPMHIRRFSNLPVLGGESCRFVISEVPESLVVLQANSSLTASLVPVKTVGDKTIEFVAPPKGQDRRTINTFYAVDLSQASAPEILGAVPNQNLHGEEIPDLIIVSTQALLPEADRLATYRREKNGLKVLVVLQEQVFNEFSGGTPDATAYRLFAKMFYDRWKANAPVGETFPMQMLLFGDGAHDNRKVSVAWQKPYLQQTEFLLTFQAVNSTNVNSYVTDDYFGLLDDQPASVNIGWRNYNMAVGRFPVRTPAEARIAVDKTIRYEEDRESGAWRIRACFAADNGDKHATETSRLIDTVKRYAPAIMPVRAFQDVYPHVIENGLHSIPGAKKKMLETLQSGIILLNYAGHGGPAGWSDEHLLTLNDIHNFNYKHMPIWITATCDFANYDSQTTSAGEEVFLHEKSGTPIMFSTTRVVYNTQNEKINGFMLRRMFEKAKDGRYRTMGEIIRSAKQGMLSTVFPDSINQLSFFLMGDPSVRMNLPTHKVQLTAINGQDPEGQYGTIMLKSLERVALKGKVTDEKGTFDETFSGKVFLTVFDGRKKMTALEEEGNDLSLVYYDYPNVMYAGIAEVKDGLFETSFIVPKDVNYSEHEGRINLYAYNESTKAEAMGVDFSIRVQPGIPDEVTEDNTPPEIISCFLNDSTFRSGDEVNPTPLFMAEVFDLNGINITGSGVGHDITLCIDGRADLTYNLNAYFTSSATDAGVGTILFMIPALAEGDHTARLTVWDIFNNAVHHDFSFRVVDGIAPDVADVILFPNPVRESATFRIFHNRPGSDLNVVVEIYDFTGRLVNSLPVKTYSSSYGEPIEIKWDLTSKYGVKIGNGFYLYRCVVNSPGGQTASMAKKMIVVAQ", "values": [
      {"measurement": "Kd", "setting": "[1]", "value": 3400, "unit": "nM"},
      {"measurement": "Kd", "setting": "[2]", "value": 700, "unit": "nM"}
    ]}
  ]
}
